The source of these data is publication PMC4737579.

The assay concerns the target soluble human furin (human) (UniProt P09958). The assay is described as follows: enzyme inhibition.

Non-standard residues stand in square brackets, D forms with d. No end group written: not given here.

The term Ki denotes a measure of affinity in units of concentration, obtained from inhibition or displacement.

B1: nona-D-arginine (peptide)
peptide: [dR][dR][dR][dR][dR][dR][dR][dR][dR]
Consider B1, for which the Ki amounted to 140 nM.
